Results taken from paper PMC5807055, “Atomic Structure of Type VI Contractile Sheath from Pseudomonas aeruginosa” (Structure(London, England:1993), 2018).

B1: P. aeruginosa TssC1 (H1-T6SS sheath protein), produced in E. coli (natural protein)
chain: MAELSTENLAQGQTTTEQTSEFASLLLQEFKPKTERAREAVETAVRTLAEHALEQTSLISNDAIKSIESIIAALDAKLTAQVNLIMHHADFQQLESAWRGLHYLVNNTETDEQLKIRVLNISKPELHKTLKKFKGTTWDQSPIFKKLYEEEYGQFGGEPYGCLVGDYYFDQSPPDVELLGEMAKISAAMHAPFISAASPTVMGMGSWQELSNPRDLTKIFTTPEYAGWRSLRESEDSRYIGLTMPRFLARLPYGAKTDPVEEFAFEEETDGADSSKYAWANSAYAMAVNINRSFKLYGWCSRIRGVESGGEVQGLPAHTFPTDDGGVDMKCPTEIAISDRREAELAKNGFMPLLHKKNTDFAAFIGAQSLQKPAEYDDPDATANANLAARLPYLFATCRFAHYLKCIVRDKIGSFKEKDEMQRWLQDWILNYVDGDPAHSTETTKAQHPLAAAEVVVEEVEGNPGYYNSKFFLRPHYQLEGLTVSLRLVSKLPSAKEA
notes: TssC1 of the H1-T6SS cluster of Pseudomonas aeruginosa; 498 residues in total (461 traced; M1-A37 not traced); also called VipB/IglB homologue; source: E. coli B834(DE3), co-produced with TssB1 from pET28-B1C1, purified as TssB1C1 tubes (size exclusion chromatography)

Legend:
[1] = target: the molecule itself; test: cryo-EM structure; TssB1C1 sheaths (1 mg/ml) purified from E. coli, vitrified; helical reconstruction in RELION; contracted sheath with 13-fold symmetry, 3.3 Å; SEC buffer 50 mM Tris-HCl pH 9, 250 mM NaCl, 1 mM EDTA, 5 mM DTT
[2] = target: B1; test: as above; settings: both partners purified

**Q.** Does B1 bind [1]?
**A.** binds

B2: P. aeruginosa TssB1 (H1-T6SS sheath protein), produced in E. coli (natural protein)
chain: MGSTTSSQKFIARNRAPRVQIEYDVELYGAEKKVQLPFVMGVMADLAGKPAEPQAAVADRKFLEIDVDNFDARLKAMKPRVAFNVPNVLTGEGNLSLDITFESMDDFSPAAVARKVDSLNKLLEARTQLANLLTYMDGKTGAEEMIMKAIKDPALLQALASAPKPKDDEPQA
notes: TssB1 of the H1-T6SS cluster of Pseudomonas aeruginosa; 172 residues in total (132 traced; M1-S3 and M136-A172 not traced); also called VipA/IglA homologue; source: E. coli B834(DE3), co-produced with TssC1 from pET28-B1C1, purified as TssB1C1 tubes (size exclusion chromatography)
**Q.** Does B2 bind [2]?
**A.** binds
